Assay: yeast display, Sf9 membrane polyspecificity reagent, FACS + sequencing; frameworks hold sequencing errors
How it was run: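 After 36–48 hours of galactose induction, yeast (Saccharomyces cerevisiae BJ5465) displaying a synthetic nanobody library were stained at 4 °C for 1 hour with 10% biotinylated, detergent-solubilized Sf9 membrane reagent. Streptavidin microbeads enriched the stained cells before FACS sorting into low and high (top ~1%) gates on anti-HA and streptavidin fluorescence. Each clone's polyreactivity label reflects its gate of origin.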

| Sequence | polyreactivity (PSR sort gate) |
| --- | --- |
| QVQLVESGGGSVQAGGSLRLSCAASGSTFVANTMGWYRQAPGKERELVASITSGDSTNYADSVKGRFTISRDNAKNTVYLQMNSLKPEDTAVYYCAAESVWYYVGGQLIYYYWGQGTQVTVSS | low polyreactivity |
| QVQLVESGGGLVQAGGSLRLSCAASGFTFRTYAKGWYRQAPAKERELVADISGSGGSTYYADSVKGRFTISRDNAKNTVYLQMNSLKPEDTAVYYCAADYASWSNWGYEYWGQGTQVTVSS | high polyreactivity |
| QVQLVESGGGLDQAGGSLRLSCAASGFIFRSYTMGWYRQEPRKEREFVPAITWTGGSTYYADSVKGRFTISRDNAKNTVYLQMNSLKPEDTAVYYCNAANWHYSTAPKPYAFDYWGQGTQVTVSS | low polyreactivity |
| QVQLVESGGGLVQAGGSLRLSCAASGSIFIYNAMGWYRQAPGKERELVAAISSSGGSTYYADSVKGRFTISRDNAKNTVYLQMNSLKPEDTAVYYCAARTYYVRGLGGRTGMDYWGQGTQVTVSS | low polyreactivity |
| QVQLVESGGGLVQAGVSLRLSCAASGRTFAYNDMGCYRQAPGKERELVAAISWSDGTTYYADSVKGRFTSSRDNAKNTVYLQMNSLKPEDTAVYYCAAESYPSEVASYVSEYDYWGQGTQVTVSS | low polyreactivity |
| QVQLVESGGGLVQAGGSLRLSCAASGSTFAGYAMGWYRQAPGKERELVAAISKSGGSTYYADSVKGRFTISRDNAKNTVYLQMNSLKPEDTAVYYCAARGGLPDGQGYYYWGQGTQVTVSS | high polyreactivity |
| QVQLVESGGGLVQAGGSLRLSCAASGSIFNSNAMGWYRQAPGKERELVAAITGSGGRTYYADSVKGRFTISRDNAKNTVYLQMNSLKPEDTAVYYCNAVTYSRRYAYYDWGQGTQVTVSS | high polyreactivity |
| QVQLVESGRGLVQAGGSLRLSCAASGRIFTTDVMGWDRQAPGKERELFAAISARGSTYYADYVKWRFTISRDNAKNTVYLHMNSLKPEDTAVYYFAKKGWSSHERAWYIYDYWGQGTQVTVSS | low polyreactivity |
| QVQLVESGGGLVQAGGSLRLSCAASGRIFSRYAMGRYRQAPGKERELVAAITQSGTSTYYADSVKGRFTISRDNAKNTVYLQMNSLKPEDTAVYYCNAYRQYRYDYWGQGTQVTVSS | low polyreactivity |
| QVQRVESGGGLVQAGGSLRLSCAASGRIFSIYGMGWYRQAPGKERELVAVISGSVGITYYADSVKGRFTISRDNAKNTVYLQINSLKPEDTAVFYCNAKVRRRKYDYWGQGTQVTVSS | high polyreactivity |
| QVQLGESGGGLVQAGGSLRLSCAASGFTFPVYAMGWYRQAPGKERELVAAISTSAGSTYYADSVKGRFTISRDNAKNTVYLQMNSLKPEDTAVYYCAARRRAFGSTYNYWGQGTQVTVSS | high polyreactivity |
| QVQLEESGGGLVQAGGSLRLSCAASGLIFGWYAMGWYRQAPGKERELVAAISRRGGSTYYADSVKGRFTISRDNAKNSVFLQMNSLKPEDTAVYYCNADTYGDSYDYWGQGTQVTVSS | high polyreactivity |
| QVRLVESGGGLVQAGGSLRLSCAASGFTFVVNAMGWYRQAPGKERELVAAITCSGGRTYYADSVKGRFTISRDNAKNTVSLQMNSLKPEDTAVYYCNAEWDDYEIEYDYWGQGTQVTVSS | low polyreactivity |
| QVQLVESGGGLVQAGGSLRLSCAASGRIFGDNAMGWYRQAPGKERELVAGIRWRADRTYYADSVKGRFTISRDNAKNTVYLQMNSLKPEDTAVYYCNADVVRYRHWHRGDYWGQGTQVTVSS | low polyreactivity |
| QVQLVESGGGLVQAGGRLRLSCAASGCTSGLNVRGWYRQAPGQERELVAAMSTGGGSTYYADSVKGPFTISRDNAKNTVYLQMTSLQPEDTAVYYCAADQSSVQDFIYNYWAQGTQVTVSS | low polyreactivity |
| QVHLVESGGGLVQAGGSLRLSCAASGFTFYYYAMGWYRQAPGKERELVAAISDSGGITYYADSVKGRFTISRDNAKNTVYLQMNSLKPEDTAVYYCAADFATPGPEYDYWGQGTQVTVSS | low polyreactivity |

| Sequence | polyreactivity (PSR sort gate) |
| --- | --- |
| QVQLVESGGGLVQAGGSLRLSCAASGSTFTIYVIGWYRTAPGKERELVAAINGGGRTNYADSVKGRFTISRDNAKNTVYLQMNSLKPEDTAVYYCAADGLSNVRQMDYWGQGTQVTVSS | low polyreactivity |
| QVQLVESRGGLVQAGGSLRLSSAASGSIIWYYAMGWYRQAPGKERELVAAITVSGGSTYYADSVKGRFTISRDNAKNTVYLQMNSLKPEDSAVYYCAARYISLSGDEYDYWGQGTQVTVSA | low polyreactivity |
| QVQLVESGGGLVQAGGSLRLSCAASGRIFRPYVMGWYRQAPGKERELVAAISYRGSSTYYADSVKGRFTISRDNAKNTVYLQMNSLKPEDTAVYYCAAYPRVYWTKEYDYWGQGTQVTVSS | high polyreactivity |
| QVQLVESGGGLVQAGGSLRLSCAASGSTLAGYAMGWYRQAPGKERELVAAITRRGGRTYYADSVKGRFTISRDNAKNTVYLQMNSLKPEDTAVYYCAAQRSVKVDYWGQGTQVTVSS | high polyreactivity |
| QVQLVESGGGLVQAGGSLRLSCAASGSIFSSYAMGWYRQAPGKEREFVAAISWGGGSTYYADSVKGRFTISRDNAKNSVYLQMNSLKPEDTAVYYCAVETWLYPYDYWGQGTQVTVSS | high polyreactivity |
| QVQLVESGGGLVQAGGSLPLSCAASGRTFDSYTMGWYRQAPGKERELVAAIRSSGGRTYADSVKGRFTISRDNAKNTVYLQMNSLKPEDTAVYYCAAARSYWAKYYYWGQGTQVTVSS | high polyreactivity |
| QVQLVESGGGLVQAGGSLRLSCAASGSIFALYAMGWYRQAPGQERELVAAISYRGGRTYYADSVKGRFTISRDNAKNTVYLQMNSLKPEDTAVYYCNARAFPFGTGVQGFGFGYWGQGTQVTVSS | low polyreactivity |
| QVQLVESGGGLVQAGGSLRLSCASSGRTFTRYAMGWYRQAPGKERELVAAITGGGTTNYADSVKGRFTISRDNAKNTVYLQINSLKPEDTAVYYCAADEQDVFAPGLYFWGQGTQVTVSS | low polyreactivity |
| QVQLVESGGGLVQAGGSLRLSCADSGSISYYAIGWYRQAPRKESELVAAISSSGGSTYYADSVNGRFTISRDNAKNTVYLQMNSLKPEDTAVYYCAAAVTGCYASDYWGQGTQVTVSS | high polyreactivity |
| QVHLVESGGGEVQAGGSLRLSCAASGRTFYNYAMGWYRQAPGKERELVASIRKNGGSTYYAYSVKGRFSISRDNAKNTVYLQMNSLKPEDTAVYYFAARYWGISRIFPSKYDYWGQGTQVTVSS | high polyreactivity |
| QVQLVESGGGLVQAGGSLRLTCAASGSIFLYYAMGWYRQAPGKERELVAGINRVGSTNYADSVKGRFTISRDNAKNTVNLQMNSLKPEDTAVYYCNKRATRSRRRGYWGQGTQVTVSS | low polyreactivity |
| QVQLVESGGVLVQAGGSLRLSCAASGRTFYGYSMGWYRQAAGKEREFVSDITYSGGRTYYADSVKGRFTISRDNAKNTVYLQMYSLKPEDTAVYYCNAYYYYVNQGRYEYGYWGQGTQVTVSS | high polyreactivity |
| QVQLVESGGGLVQAGGSLRLSCAASGFIFDEYAMGWYRQAPGKERELVAAISWSGSRTYYADSVKGRFTISRDNAKNTVYLQMNSLKPQDTAVDYCAKVTAVGAGRRNYWGQGTQVTVSS | low polyreactivity |
| QVQLVQSGGGLVQAGGILRLSCAASVSTLFGYAMGWYRQAPGKERELVAAINTGGSTNDADSVKGRFTISRDNAKNTVYVQMNSLKPEDTAVYYCAADYEWDAFAYDYWGHGTQVTVSS | low polyreactivity |
| QVQLVESGGGLLQAGGSLRLSCAASGSLFGGYAMAWYRQAPGKEREFGAAISGRGASTYYADSVKGRFTISRDNAKTTVYLQMNSLKPEDTAVYDCNARADGRIDGHSATYGYWGQGTQVTVSS | high polyreactivity |
| QVQLVESGGGLVQAGGSLRLSCAASGFTITYYVMGWYRQAPGKERELVAAISSGGRTYYADSVKGRFTISRDNAKNTVYLQMNSLKPEDTAVYYCARAISIYPGFGYWGQGTQVTVSS | high polyreactivity |

— the nanobody polyreactivity screen of Harvey et al. (2022)
